Test: soluble fraction after stress (log2 fold change); higher = more stays soluble; pooled small domains, quantitative proteomics
Settings: stress: 75 degC
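Also: 20 min heating vs room temperature control held 20 min.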

## HMDIEITIPPEAKELDVSKILISGNIITDEQEFLDYLKQNNVAAFKDGNYKLNKNMTTEEIVNQIK
  soluble fraction (log2): 0.691

## HMDIESREAWVDASGMGVRLDRWLTQLAPEFSRNHLQSLIERGAVRVDGQPALVASRKLRIGQQVAVSLIP
  soluble fraction (log2): -1.31

## HMDIEVEVPNLVGMSLDEAKSIIQSMGLVVGLTIEDPSAKVSDNSVTKQKPTYQTGVKLRSGDMIDIWYAG
  soluble fraction (log2): -0.659

## HMDIFSSFVAIKNANVRELPTAKSAQVATLSKGSEVTALGKVKGKNWYLVARDGKELGYVFGSLIAEAET
  soluble fraction (log2): -1.56

## HMDIINLADNIARLRRRRQITQEELADYLGVTKAAVSKWENRQTMPDILLLPRLAGLFEVTIDELVGY
  soluble fraction (log2): -2.19

## HMDIKDRSGVTIDESNEAQQESIIRESWAEQKISGNVDNYIAYLKANGMLLETAKIELAALQEKDASLRE
  soluble fraction (log2): 0.774

## HMDILEVLIKKDLAMELLEQLTERQRTVVYLRYFYQLNQKEIADYLGISQQRVSEILSRAKAVLTAYTKK
  soluble fraction (log2): -3

## HMDILPEGNYKVNYDVIDEVGNIVANKNDIVVTEKSIKPLNTILGIDLYEVIHSQTGKYFTINGDNLTN
  soluble fraction (log2): -0.0277

## HMDINLGIGPLVKKYRTIKGYSIRELARNINVTASMLSQIERDIVNPSINTLKAISVELGVPMYKFFM
  soluble fraction (log2): -2.38

## HMDINLSENLVRLRHAKKLTQEQLADFLGVTKASVSKWETRQSLPDILLLPRLAAFYGVTVDELIGYEP
  soluble fraction (log2): -1.81

## HMDISKTLGKNPLLIIDNIEYRGKTLDEITAMTGVKRFENIDIYGSEEAMKTYGEKAKDGVIIAYTT
  soluble fraction (log2): 0.0575

## HMDITGIGIKKRIKAIIDSEDKKNPLSDTQIVEILKNEGLEISRRTVAKYRSDLQIPSSSKRKK
  soluble fraction (log2): 0.143

## HMDIVEIYVGEEDGERIDSYLAQELNNVSRSYVQGLIKNQLITVNGNHVKPKHIVKEGEHIIVNIPPPKV
  soluble fraction (log2): -0.0948

## HMDIVENSMPNVVGLELNRAKELMTQLGFTNVRYEPTESSRPENEVVYQSVDKDETLDVSSEIIIQYSSGV
  soluble fraction (log2): 0.0628

## HMDKEKLQEKLLQIFEAEPQKKFQVQDLVKVLDMEGAGQFKFVVQALADLEHNKQIKLSEDDTFSLIVKE
  soluble fraction (log2): -0.173

## HMDKENVLQLQKDLLRLSVNALEKRYYQFSDILLLKYILPLVPKEISIDDQSRLRSLLSGIN
  soluble fraction (log2): -0.538

## HMDKEPTHLHTFRLIKEGKSSEEIAEIRNITLGTVNTHLAKLIAVGELTIEQVISKHRLDYVMEAIKNSK
  soluble fraction (log2): 0.176

## HMDKKIVGVNAGKVWQALNEVTEISIVELAEKLNLSVESTALAAGWLAREDQISIERKNGTIELQRKN
  soluble fraction (log2): -0.91

## HMDKNNLLIIYRTNSEGTPYAFSVTPSAKSLDALHKDAKEMLPFLEKSMNNFFSIQIWERAEYLKY
  soluble fraction (log2): -0.785

## HMDKPGMRLNQFIAHSGISSRREADNLIKAGLVQVNGKIIVEMGFRVMPTDIVKFNNETIAS
  soluble fraction (log2): -2.08

## HMDKPIVFLEDTKAHKSSDLQSPVYMTVPKGTIAFVIAEKGDWSQVYAGRVLDRNLASQWVRRGFS
  soluble fraction (log2): 0.267

## HMDKSLDFASIKSVEIATGRKFGWHALKKWSKSNSSEIKTIPDPNFGEVKTYHKDAWLAVYNINLSPILD
  soluble fraction (log2): -0.376

## HMDKSPMIGTAEYEGVLYWRQTKDNGATWEWITDKNGDKMPVSGPAPAVGIDKDGYWTVNGESTGVLAKD
  soluble fraction (log2): 0.225

## HMDKVSYALGLGIGRQLTDMGAKDLNIDDFAQAIKDVLAGGEVKLSDAEAQTIVRNFFDEQEKKQRA
  soluble fraction (log2): -0.029

## HMDLANLQNGQTLPLQRDVEVISIPFGKTISLSEDSVVSIMQAKGSSVSVAYEGRLYLIEGSNLDALGLEP
  soluble fraction (log2): -1.1

## HMDLANRSLDRGITILESLARNGASSLADLHRDSGIAKSTIRRLLGTLIQHRLVRRSVADGLYRVTIPLPA
  soluble fraction (log2): -1.42

## HMDLDIQNYNLDEILELFKVSYDFDETELKKAHKMYLMTHPDKSNLNPNIFLFFVQAYDILRKLYEFR
  soluble fraction (log2): -0.691

## HMDLDIRDDIYRANIPNDYKLQQMQNNIDYDKVLTGYYNNRPEANVIANRTLQLANDVYNRD
  soluble fraction (log2): 0.00307

## HMDLDLNIDNYNFDDLLNLFGLKMKFSEDDLKKAKRSVLMTHPDKSGLDKQYFMFFTKAYKMLSQIYYFR
  soluble fraction (log2): 0.572

## HMDLDPNKPAIPIAYPRVLLNIMAEKGFSRTEVLAGSGLADSVFDKPDHRITPAQFLFILMNSFYLS
  soluble fraction (log2): -0.67

## HMDLFLVYQFIRRLATPFTEWKAHELGIIDDKGVQLKKRRDFTTREEKDAYGIFDIMITKLKRLIEKV
  soluble fraction (log2): 0.0817

## HMDLFSAVVHHIVGQQISTKAQATIWKRMRDEFGVVDAAAVLGAGVEKLQSFGMTFRKAEYITDFARKIE
  soluble fraction (log2): -2.61

## HMDLGLTDDQRLVYGLLSPTVPRSSGELLGMVDFGRSKLSRILKELIELGQVFTVGVGRGLKYKRG
  soluble fraction (log2): -0.482

## HMDLGTHMRLIVPTGMRVDHIVYESNGKNISVDHDRSISVRWNGEVVSIDVSPLPSRPDFDVLIYMSPK
  soluble fraction (log2): -0.134

## HMDLLAESLTRREAEVAALAARGLTNRAIAELFGLSVRTAETHLHRAMGKLGANRREDLLLHADRLDPG
  soluble fraction (log2): -1.41

## HMDLLESLSAREREVVHLASRGLVNKLIARELGITERTVKAHLSSAFEKLHIKDRVHLALLVNGI
  soluble fraction (log2): -2.46

## HMDLLKANNLSQINVDKLTDEEILKYSQQLKQSGLTESQAEQIAIARGMPATEIAKLKQRLISLTNMQ
  soluble fraction (log2): 0.118

## HMDLLVWRVADEDAGERIDKLVVDSLDDVSRTAVQQWIKDGLVTVNGKTVKPNYKAAAGDEVAVSVPEPE
  soluble fraction (log2): 0.239

## HMDLMKKTLTKEMLLIDFMKQQFPDSSTNKLRKMLSSGRVKINNLITHKAKSQLKLGDIFELANKPHD
  soluble fraction (log2): -1.31

## HMDLPGIVTETDRQRADLAARIGAAKVEAVLAGGARSVEADEDFDADTRRELHQFLTRMARRAFLEER
  soluble fraction (log2): 0.1

## HMDLPSSETLKVKLNLAKAYVTIEDFGAARRALDEVLSVSSLVDPDLTIQAKSLLAEIDQRS
  soluble fraction (log2): -0.352

## HMDLQAAWLQTVRHLLAHTEDVGDRFAEEARRIHYGEEPHRGIRGQATPEERLALREEGIETMSIPV
  soluble fraction (log2): -0.919

## HMDLQHQLTPRLKRLRLSGILETLEVRNQQAIAEKWSYVEFLTRLAEDEVERRDHKQLTLRLR
  soluble fraction (log2): -0.529

## HMDLSYPFTTVTTDNVNMRRSASSSSVVLERIDKGDSITVLGTSGNYYKVSYNDRTGYVLKQYVDVSAATT
  soluble fraction (log2): -0.254

## HMDLTPEEQMDLYRLLDSLPTEERTYLILHYFEERSFPEMAEILSMPEAKLKSRFYRILHRLRAHL
  soluble fraction (log2): -2.74

## HMDLTSDANLKEAKDQILNLLNDGKRHHVTEINKILLPPVQVQEALRFLIHEETVRVDASFLF
  soluble fraction (log2): -0.104

## HMDLVESYDLKIIYTSELINLLIDSSRLEEALNLFKDLKDEIDDVENLGFSAKNNLDYMESKLLHLG
  soluble fraction (log2): -1.94

## HMDLYIILGLERSATLSDVRRAYRRLARKYHPGINPGDRNSASVFTRVSEAYQVLSDPEQRRRYDSR
  soluble fraction (log2): -2.84

## HMDMDRRALLLALINDRYHASVAEFARAINKAPAQVHQWLSGNRALGNAGARDIEIRLNLAQGYFDH
  soluble fraction (log2): -2.16

## HMDMQMPIMNGLEFLERINLTLDDNFSIIVLTGKIEDKSIEKSFELGINAYLRKPFNIYALLGIVRQN
  soluble fraction (log2): -0.135

## HMDMSDFEVVRDMYLTGKVWNAGDIVEAKGITGEVVRKGTNYLSFVDKNGKVHKAWLHEIEL
  soluble fraction (log2): -0.197

## HMDNAILQELYDYYKEDPSLSQSELIISMLTRIQEAVGYVSKDVQEEVARLAGVNRGYVAAIIKNLPHL
  soluble fraction (log2): -1.17

## HMDNEYDKVYQAALSKLEGYPRSSITTAVIKDVVAQTIKYFEIKNFGYEDTIINQLQSAFTVKSSS
  soluble fraction (log2): -0.0883

## HMDNLSESQIKAYSSILSRTHEISDLAENKDYLAFSLWIANILRDPQSVREETAKRVFSALHTNTDFK
  soluble fraction (log2): -0.984

## HMDNMFMPPVNGWDVRQALQKLQNEMGLQVKMEYSPSETITEGYVISYTPIDGMKVEKGDEVTLVISTGPE
  soluble fraction (log2): -0.0359

## HMDNMTEMQKAVTALIEKSGGSIDNLSVIYDHLKKKYPSFDLKDYGYSRFSSFLRSMENIMVRGNAVTLRS
  soluble fraction (log2): -0.211

## HMDNPPDRAEIEQMLKDAGLTPEADAMAALSDLARTLDPGDFRQTLEKITLYKLGDSTPIGLDDIAAGAP
  soluble fraction (log2): 0.0465

## HMDNQSIVRINDGDGAWRQRLGEHFGHLPRDRKRGEIVLQVDAADWRWLQTQGYAPRFDAALSAQLQTTL
  soluble fraction (log2): -0.479

## HMDNVLGKSGKVIFVNEEINSYGRAFIPGHGEWNIRTKSDQNIHINDGIKVIERDGITLVVEL
  soluble fraction (log2): -1.26

## HMDNVQLRNFAIKATEASIIYLDQEQRNFFWYNNNKKLMTVPFDENPYSAFAAYLKTDEGSEVYKAIEKKF
  soluble fraction (log2): -1.97

## HMDNWAALLSEREVQVSRLVANGASNKEIADHLAITERTVKAHLTAVFEKLGVRDRLQLSLRVNGL
  soluble fraction (log2): -3.94

## HMDPALSPAEQKIWDLLAAGETHIDDLVRASGLPVATVNSALVMMEMKEVISQVAAKTYRRNRRN
  soluble fraction (log2): -1.3

## HMDPEARRRAILNAAIDVIVEKGAAALTHRAVAARAGVSLGSTTKYFSSIEDLRENAMDALVREMD
  soluble fraction (log2): -0.496

## HMDPEEQIQSREIWEAVERALDGMQEKGRRVVIALLEGQTQLEVSRAAGISQPLISYYLKSFRTKVRTELG
  soluble fraction (log2): -0.73

## HMDPEIADAVNTIKKYLESHYSEVITRKKIEELVHLNQDHINREFKKQTGYTLMEYVQHYRILMAKKMLRV
  soluble fraction (log2): -0.576

## HMDPEQLKIAINTKMPFGKYSGRPLLLLPEPYLVWFKQQGFPDSKLGSQLAMMYEVKLNGLEQMLMPLL
  soluble fraction (log2): -0.665

## HMDPERLDQLQNPDPAVRREAIIALGRSKDLAALPELAKVYKNDPVPELRELARQAGRYIQQENRP
  soluble fraction (log2): 0.00398

## HMDPFVILGISKDSSQSEILEAYKTKRAYYQEHVFDEGDQGAQAARMLGQLDDAYQQAMELSHE
  soluble fraction (log2): 0.0281

## HMDPKISWESDEKLSANIGHYENSIKPLMGNKYLIELSQLKDKIESHPWVARATIKRIFWNKIHIQLESHD
  soluble fraction (log2): -0.0642

From the domain aggregation screens of Martell et al. (2025)
